According to publication PMC12416549 (2024):
Changes are numbered by the printed parent chain. Names may count otherwise.

T1: TNFR1 (Homo sapiens, UniProt P19438)
T1 chain: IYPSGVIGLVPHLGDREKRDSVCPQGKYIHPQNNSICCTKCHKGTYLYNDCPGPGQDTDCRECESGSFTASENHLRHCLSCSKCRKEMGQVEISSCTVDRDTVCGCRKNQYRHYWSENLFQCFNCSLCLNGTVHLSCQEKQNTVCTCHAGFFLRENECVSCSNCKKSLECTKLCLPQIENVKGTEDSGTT

B1: E29W (designed binder)
chain: MTLQELLREEALRRAEAEAFRYALELLAWKFPEQKEYLLDLAEEIESQIRSLSGVDVEDVRKFLDKEWAWVKELLAEHPAELAEVEAARAARLAELRAEVEAKVAA
B2: K103D (designed binder)
chain: B1 chain with W29E, K103D
B3: A69Q (designed binder)
chain: B1 chain with W29E, A69Q
B4: A90P (designed binder)
chain: B1 chain with W29E, A90P
B5: A87P (designed binder)
chain: B1 chain with W29E, A87P
B6: E95C (designed binder)
chain: B1 chain with W29E, E95C
B7: E73Y (designed binder)
chain: B1 chain with W29E, E73Y
B8: A42M (designed binder)
chain: B1 chain with W29E, A42M
B9: S47P (designed binder)
chain: B1 chain with W29E, S47P
B10: A15L (designed binder)
chain: B1 chain with A15L, W29E
B11: E46A (designed binder)
chain: B1 chain with W29E, E46A
B12: R8M (designed binder)
chain: B1 chain with R8M, W29E
B13: L82W (designed binder)
chain: B1 chain with W29E, L82W
B14: P79S (designed binder)
chain: B1 chain with W29E, P79S
B15: A69T (designed binder)
chain: B1 chain with W29E, A69T
B16: I49K (designed binder)
chain: B1 chain with W29E, I49K
B17: F20G (designed binder)
chain: B1 chain with F20G, W29E
B18: L64H (designed binder)
chain: B1 chain with W29E, L64H
B19: S53P (designed binder)
chain: B1 chain with W29E, S53P
B20: L24W (designed binder)
chain: B1 chain with L24W, W29E
B21: I49F (designed binder)
chain: B1 chain with W29E, I49F
B22: E25D (designed binder)
chain: B1 chain with E25D, W29E
B23: E36H (designed binder)
chain: B1 chain with W29E, E36H
B24: E73V (designed binder)
chain: B1 chain with W29E, E73V
B25: R89H (designed binder)
chain: B1 chain with W29E, R89H
B26: D65V (designed binder)
chain: B1 chain with W29E, D65V
B27: L7H (designed binder)
chain: B1 chain with L7H, W29E
B28: Q4L (designed binder)
chain: B1 chain with Q4L, W29E
B29: K72M (designed binder)
chain: B1 chain with W29E, K72M
B30: R61P (designed binder)
chain: B1 chain with W29E, R61P
B31: E44K (designed binder)
chain: B1 chain with W29E, E44K
B32: I49M (designed binder)
chain: B1 chain with W29E, I49M
B33: L82A (designed binder)
chain: B1 chain with W29E, L82A
B34: E43G (designed binder)
chain: B1 chain with W29E, E43G
B35: A88N (designed binder)
chain: B1 chain with W29E, A88N
B36: D56Q (designed binder)
chain: B1 chain with W29E, D56Q
B37: L75N (designed binder)
chain: B1 chain with W29E, L75N
B38: S53L (designed binder)
chain: B1 chain with W29E, S53L
B39: A23P (designed binder)
chain: B1 chain with A23P, W29E
B40: R97Y (designed binder)
chain: B1 chain with W29E, R97Y
B41: S47D (designed binder)
chain: B1 chain with W29E, S47D
B42: Y37P (designed binder)
chain: B1 chain with W29E, Y37P
B43: S47V (designed binder)
chain: B1 chain with W29E, S47V
B44: S47A (designed binder)
chain: B1 chain with W29E, S47A
B45: S47H (designed binder)
chain: B1 chain with W29E, S47H
B46: V100S (designed binder)
chain: B1 chain with W29E, V100S
B47: E81F (designed binder)
chain: B1 chain with W29E, E81F
B48: V55G (designed binder)
chain: B1 chain with W29E, V55G
B49: E29G (designed binder)
chain: B1 chain with W29G
B50: E73N (designed binder)
chain: B1 chain with W29E, E73N
B51: L38K (designed binder)
chain: B1 chain with W29E, L38K
B52: D65Q (designed binder)
chain: B1 chain with W29E, D65Q
B53: E67Q (designed binder)
chain: B1 chain with W29E, E67Q
B54: F31D (designed binder)
chain: B1 chain with W29E, F31D
B55: M1S (designed binder)
chain: B1 chain with M1S, W29E

Target: T1, TNFR1
Experiment: yeast display SC50

Binder	apparent Kd (screen) [nM]
B1	0.653
B2	0.718
B3	0.653
B4	1.4
B5	0.956
B6	0.49
B7	0.539
B8	2.48
B9	3.3
B10	0.368
B11	0.49
B12	0.49
B13	0.956
B14	0.593
B15	0.718
B16	7.78
B17	0.869
B18	0.956
B19	13.8
B20	4.83
B21	0.539
B22	1.27
B23	0.49
B24	1.05
B25	0.539
B26	0.956
B27	7.07
B28	0.446

Binder	apparent Kd (screen) [nM]
B29	0.49
B30	26.9
B31	0.956
B32	0.869
B33	0.869
B34	0.79
B35	0.718
B36	1.4
B37	0.593
B38	2.25
B39	0.718
B40	0.49
B41	1.27
B42	18.3
B43	0.446
B44	0.49
B45	0.539
B46	0.49
B47	0.718
B48	0.539
B49	0.49
B50	1.86
B51	4.39
B52	0.79
B53	11.4
B54	2.25
B55	0.539
